Results published in publication PMC5090061.

Key:
[1] = biological target: GMPCPP-stabilized microtubules of porcine brain tubulin (porcine) (UniProt P02550); experiment: single-molecule TIRF microscopy; rhodamine-labelled GMPCPP-stabilized microtubules stuck onto the flow-chamber surface; 1–6 nM MCAK-GFP or GFP-labelled mutant in BRB20 pH 6.9, 75 mM KCl, 1 mM ATP, 0.05% Tween 20, 0.1 mg/ml BSA; 25°C; duration of GFP events at the microtubule end and on the lattice measured from kymographs
[2] = biological target: GMPCPP-stabilized microtubules of porcine brain tubulin (porcine) (UniProt P02550)
[3] = biological target: Unpolymerized GDP-tubulin (porcine brain) (porcine) (UniProt P02550)

UniProt P02550, sequence (P02550 whole entry, looked up): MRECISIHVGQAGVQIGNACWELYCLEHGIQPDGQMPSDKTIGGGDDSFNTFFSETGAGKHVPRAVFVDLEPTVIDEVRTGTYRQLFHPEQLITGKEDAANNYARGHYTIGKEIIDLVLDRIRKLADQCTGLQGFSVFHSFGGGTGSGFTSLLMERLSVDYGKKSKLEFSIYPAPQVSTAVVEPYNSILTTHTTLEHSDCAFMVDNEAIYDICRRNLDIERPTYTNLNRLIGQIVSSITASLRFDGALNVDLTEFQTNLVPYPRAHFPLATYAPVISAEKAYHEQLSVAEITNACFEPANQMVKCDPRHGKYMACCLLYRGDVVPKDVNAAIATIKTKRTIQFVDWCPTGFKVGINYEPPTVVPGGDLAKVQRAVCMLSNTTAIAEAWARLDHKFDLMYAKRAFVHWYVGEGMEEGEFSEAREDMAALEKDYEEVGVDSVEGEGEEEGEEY

Row | microtubule-end residence time [1] [s] | percent of microtubule end interaction events longer than 2 s [1] [%] | depolymerization rate of individual GMPCPP microtubules with 40 nM MCAK [2] [μm min^−1] | microtubule-stimulated ATPase (0.1 µM MCAK, 10 µM GMPCPP-stabilized microtubules) [2] [s⁻¹] | tubulin-stimulated ATPase (0.1 µM MCAK, 10 µM unpolymerized GDP-tubulin) [3] [s⁻¹] | Binder
1 | 2.03 | 31.5 | 2.12 | 3.16 | 0.204 | Full-length human MCAK-his6-EGFP (wild type) (natural protein) MAMDSSLQARLFPGLAIKIQRSNGLIHSANVRTVNLEKSCVSVEWAEGGATKGKEIDFDDVAAINPELLQLLPLHPKDNLPLQENVTIQKQKRRSVNSKIPAPKESLRSRSTRMSTVSELRITAQENDMEVELPAAANSRKQFSVPPAPTRPSCPAVAEIPLRMVSEEMEEQVHSIRGSSSANPVNSVRRKSCLVKEVEKMKNKREEKKAQNSEMRMKRAQEYDSSFPNWEFARMIKEFRATLECHPLTMTDPIEEHRICVCVRKRPLNKQELAKKEIDVISIPSKCLLLVHEPKLKVDLTKYLENQAFCFDFAFDETASNEVVYRFTARPLVQTIFEGGKATCFAYGQTGSGKTHTMGGDLSGKAQNASKGIYAMASRDVFLLKNQPCYRKLGLEVYVTFFEIYNGKLFDLLNKKAKLRVLEDGKQQVQVVGLQEHLVNSADDVIKMIDMGSACRTSGQTFANSNSSRSHACFQIILRAKGRMHGKFSLVDLAGNERGADTSSADRQTRMEGAEINKSLLALKECIRALGQNKAHTPFRESKLTQVLRDSFIGENSRTCMIATISPGISSCEYTLNTLRYADRVKELSPHSGPSGEQLIQMETEEMEACSNGALIPGNLSKEEEELSSQMSSFNEAMTQIRELEEKAMEELKEIIQQGPDWLELSEMTEQPDYDLETFVNKAESALAQQAKHFSALRDVIKALRLAMQLEEQASRQISSKKRPQ
2 | 0.59 | 0.9 | 0.1 | 0.16 | 0.195 | Full-length human MCAK-his6-EGFP E525A (natural protein) MAMDSSLQARLFPGLAIKIQRSNGLIHSANVRTVNLEKSCVSVEWAEGGATKGKEIDFDDVAAINPELLQLLPLHPKDNLPLQENVTIQKQKRRSVNSKIPAPKESLRSRSTRMSTVSELRITAQENDMEVELPAAANSRKQFSVPPAPTRPSCPAVAEIPLRMVSEEMEEQVHSIRGSSSANPVNSVRRKSCLVKEVEKMKNKREEKKAQNSEMRMKRAQEYDSSFPNWEFARMIKEFRATLECHPLTMTDPIEEHRICVCVRKRPLNKQELAKKEIDVISIPSKCLLLVHEPKLKVDLTKYLENQAFCFDFAFDETASNEVVYRFTARPLVQTIFEGGKATCFAYGQTGSGKTHTMGGDLSGKAQNASKGIYAMASRDVFLLKNQPCYRKLGLEVYVTFFEIYNGKLFDLLNKKAKLRVLEDGKQQVQVVGLQEHLVNSADDVIKMIDMGSACRTSGQTFANSNSSRSHACFQIILRAKGRMHGKFSLVDLAGNERGADTSSADRQTRMEGAEINKSLLALKACIRALGQNKAHTPFRESKLTQVLRDSFIGENSRTCMIATISPGISSCEYTLNTLRYADRVKELSPHSGPSGEQLIQMETEEMEACSNGALIPGNLSKEEEELSSQMSSFNEAMTQIRELEEKAMEELKEIIQQGPDWLELSEMTEQPDYDLETFVNKAESALAQQAKHFSALRDVIKALRLAMQLEEQASRQISSKKRPQ
3 | 0.65 | 0 | 0.29 | 0.66 | 0.205 | Full-length human MCAK-his6-EGFP R528A (natural protein) MAMDSSLQARLFPGLAIKIQRSNGLIHSANVRTVNLEKSCVSVEWAEGGATKGKEIDFDDVAAINPELLQLLPLHPKDNLPLQENVTIQKQKRRSVNSKIPAPKESLRSRSTRMSTVSELRITAQENDMEVELPAAANSRKQFSVPPAPTRPSCPAVAEIPLRMVSEEMEEQVHSIRGSSSANPVNSVRRKSCLVKEVEKMKNKREEKKAQNSEMRMKRAQEYDSSFPNWEFARMIKEFRATLECHPLTMTDPIEEHRICVCVRKRPLNKQELAKKEIDVISIPSKCLLLVHEPKLKVDLTKYLENQAFCFDFAFDETASNEVVYRFTARPLVQTIFEGGKATCFAYGQTGSGKTHTMGGDLSGKAQNASKGIYAMASRDVFLLKNQPCYRKLGLEVYVTFFEIYNGKLFDLLNKKAKLRVLEDGKQQVQVVGLQEHLVNSADDVIKMIDMGSACRTSGQTFANSNSSRSHACFQIILRAKGRMHGKFSLVDLAGNERGADTSSADRQTRMEGAEINKSLLALKECIAALGQNKAHTPFRESKLTQVLRDSFIGENSRTCMIATISPGISSCEYTLNTLRYADRVKELSPHSGPSGEQLIQMETEEMEACSNGALIPGNLSKEEEELSSQMSSFNEAMTQIRELEEKAMEELKEIIQQGPDWLELSEMTEQPDYDLETFVNKAESALAQQAKHFSALRDVIKALRLAMQLEEQASRQISSKKRPQ
4 | 0.59 | 0 | 0.13 | 0.72 | 0.184 | Full-length human MCAK-his6-EGFP K524A (natural protein) MAMDSSLQARLFPGLAIKIQRSNGLIHSANVRTVNLEKSCVSVEWAEGGATKGKEIDFDDVAAINPELLQLLPLHPKDNLPLQENVTIQKQKRRSVNSKIPAPKESLRSRSTRMSTVSELRITAQENDMEVELPAAANSRKQFSVPPAPTRPSCPAVAEIPLRMVSEEMEEQVHSIRGSSSANPVNSVRRKSCLVKEVEKMKNKREEKKAQNSEMRMKRAQEYDSSFPNWEFARMIKEFRATLECHPLTMTDPIEEHRICVCVRKRPLNKQELAKKEIDVISIPSKCLLLVHEPKLKVDLTKYLENQAFCFDFAFDETASNEVVYRFTARPLVQTIFEGGKATCFAYGQTGSGKTHTMGGDLSGKAQNASKGIYAMASRDVFLLKNQPCYRKLGLEVYVTFFEIYNGKLFDLLNKKAKLRVLEDGKQQVQVVGLQEHLVNSADDVIKMIDMGSACRTSGQTFANSNSSRSHACFQIILRAKGRMHGKFSLVDLAGNERGADTSSADRQTRMEGAEINKSLLALAECIRALGQNKAHTPFRESKLTQVLRDSFIGENSRTCMIATISPGISSCEYTLNTLRYADRVKELSPHSGPSGEQLIQMETEEMEACSNGALIPGNLSKEEEELSSQMSSFNEAMTQIRELEEKAMEELKEIIQQGPDWLELSEMTEQPDYDLETFVNKAESALAQQAKHFSALRDVIKALRLAMQLEEQASRQISSKKRPQ
